Columns and labels:
Experiment in all cases: pull-down binding Z-score (relative to library population); higher = stronger binding
[1] = test system: TO-N3-2 (biotin conjugate); conditions: RNA library: Library-2
Summary of the method: (§1)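 The RNA library, end-labelled with Cy5 or Cy3, was heat-folded in phosphate/NaCl/KCl buffer, and 1 μg was incubated at 25 °C for 60 min with streptavidin beads carrying 100 pmol of biotin-conjugated small molecule. Hot SDS released the bound RNA, which was then hybridised to a DNA barcode microarray for 20 h at 55.5 °C. For scoring binding, signal from beads alone was subtracted, replicate barcoded probes were averaged after discarding the highest and lowest, and each value was turned into a Z-score from the library mean and standard deviation.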

[2] = test system: G-clamp-N3 (biotin conjugate); conditions: RNA library: Library-1 (pre-miRNA loops + repeats)
Summary of the method: as §1

TO-N3 (biotin conjugate) = conditions: RNA library: Library-2
Summary of the method: as §1

[3] = test system: TO-3-N3 (biotin conjugate); conditions: RNA library: Library-2
Summary of the method: as §1

[4] = test system: TO-3-N3-2 (biotin conjugate); conditions: RNA library: Library-2
Summary of the method: as §1

## CACGGUGUCUGCGGGAGGAGACCAUG [hsa-mir-4757]
[1]
  pull-down binding Z-score: 0.821
[2]
  pull-down binding Z-score: -0.814
TO-N3 (biotin conjugate)
  pull-down binding Z-score: 0.828
[3]
  pull-down binding Z-score: 0.515

## GUACUGGGUCUCUCUGGUUAGACCAGAUCUGAGCCUGGGAGCUCUCUGGCUAACUAGGGAACCCACUGC [HIV_2014_Siegfried_nucs_8982_9173_4]
[2]
  pull-down binding Z-score: 0.055

## GUCUCUCUGGUUAGACCAGAUCUGAGCCUGGGAGCUCUCUGGCUAACUAGGGAAC [HIV_2014_Siegfried_nucs_1_753_1]
[2]
  pull-down binding Z-score: -0.404

## UGGGGAGUUGAACCUA [IAV_invivo_PB2_1_Motif_19+IAV_invivo_PB2_1_Motif_19]
[1]
  pull-down binding Z-score: -0.437
[4]
  pull-down binding Z-score: 0.0385
TO-N3 (biotin conjugate)
  pull-down binding Z-score: 0.376
[3]
  pull-down binding Z-score: 0.448

## UGGGGAUCACAACUCA [IAV_invivo_PB1_2_Motif_11+IAV_invivo_PB1_2_Motif_11]
[1]
  pull-down binding Z-score: -0.317
[4]
  pull-down binding Z-score: -0.0635
TO-N3 (biotin conjugate)
  pull-down binding Z-score: 0.158
[3]
  pull-down binding Z-score: 0.479

## UGGGGCGCGAUCAAAACAACGUCGGCCCCA
[1]
  pull-down binding Z-score: -0.439
[4]
  pull-down binding Z-score: 0.157
TO-N3 (biotin conjugate)
  pull-down binding Z-score: 0.0437
[3]
  pull-down binding Z-score: 0.2

## UGGGGUUGGGGUUGGGGUUGGGGUUGGGGUUGGGGU [G4_(UGGGGU)6]
[2]
  pull-down binding Z-score: 1.14

## UGGGGUUGGGGUUGGGGUUGGGGUUGGGGUUGGGGU [G4_r(UGGGGU)6]
[1]
  pull-down binding Z-score: 4.95
[4]
  pull-down binding Z-score: 8.72
TO-N3 (biotin conjugate)
  pull-down binding Z-score: 6.75
[3]
  pull-down binding Z-score: 7.92

## UGGGGUUGGGGUUGGGGUUGGGGUUGGGGUUGGGGUUGGGGUUGGGGU [G4_(UGGGGU)8]
[2]
  pull-down binding Z-score: 1.45

## UGGGGUUGGGGUUGGGGUUGGGGUUGGGGUUGGGGUUGGGGUUGGGGU [G4_r(UGGGGU)8]
[1]
  pull-down binding Z-score: 4.93
[4]
  pull-down binding Z-score: 8.63
TO-N3 (biotin conjugate)
  pull-down binding Z-score: 6.59
[3]
  pull-down binding Z-score: 7.69

## UGGGUAGAAUUCGAUCUGUCUAUCCA
[1]
  pull-down binding Z-score: -0.327
[4]
  pull-down binding Z-score: -0.21
TO-N3 (biotin conjugate)
  pull-down binding Z-score: -0.686
[3]
  pull-down binding Z-score: -0.51

## UGGGUUACAUCCUACACAGGCACCUACACACCUCAGUGUUGACACUAAAUUCAAAACUGAAGGUUUAUGUGUUGACAUACCUGGCAUACCUAAGGACAUGACCUA
[1]
  pull-down binding Z-score: 0.213
[4]
  pull-down binding Z-score: -0.293
TO-N3 (biotin conjugate)
  pull-down binding Z-score: -0.257
[3]
  pull-down binding Z-score: -0.497

## UGGGUUAUCUUCAACCUA
[1]
  pull-down binding Z-score: -0.937
[4]
  pull-down binding Z-score: -0.424
TO-N3 (biotin conjugate)
  pull-down binding Z-score: -0.726
[3]
  pull-down binding Z-score: -0.534

## UGGGUUGGGUUGGGUUGGGUUGGGUUGGGU [G4_(UGGGU)6]
[2]
  pull-down binding Z-score: 1.62

## UGGGUUGGGUUGGGUUGGGUUGGGUUGGGU [G4_r(UGGGU)6]
[1]
  pull-down binding Z-score: 5.72
[4]
  pull-down binding Z-score: 10.2
TO-N3 (biotin conjugate)
  pull-down binding Z-score: 7.32
[3]
  pull-down binding Z-score: 8.7

## UGGGUUGGGUUGGGUUGGGUUGGGUUGGGUUGGGUUGGGU [G4_(UGGGU)8]
[2]
  pull-down binding Z-score: 0.596

## UGGGUUGGGUUGGGUUGGGUUGGGUUGGGUUGGGUUGGGU [G4_r(UGGGU)8]
[1]
  pull-down binding Z-score: 5.96
[4]
  pull-down binding Z-score: 10.4
TO-N3 (biotin conjugate)
  pull-down binding Z-score: 7.56
[3]
  pull-down binding Z-score: 8.92

## UGGUAAUGCUGCUAUCAGCGAUUAUGACUACUAUCGUUAUAAUCUACCA
[1]
  pull-down binding Z-score: -0.119
[4]
  pull-down binding Z-score: -0.385
TO-N3 (biotin conjugate)
  pull-down binding Z-score: -1.09
[3]
  pull-down binding Z-score: -0.937

## UGGUACUAUCUAUACAGAACUGGAACCA [SHAPE_invitro_SARS-CoV-2_Motif_233]
[1]
  pull-down binding Z-score: -0.456
[4]
  pull-down binding Z-score: -0.345
TO-N3 (biotin conjugate)
  pull-down binding Z-score: -0.445
[3]
  pull-down binding Z-score: -0.352

## UGGUACUGAAGAUGAUUACCA [SHAPE_invitro_SARS-CoV-2_Motif_57]
[1]
  pull-down binding Z-score: 0.00913
[4]
  pull-down binding Z-score: 0.306
TO-N3 (biotin conjugate)
  pull-down binding Z-score: -0.278
[3]
  pull-down binding Z-score: -0.272

## UGGUAUUCUUGCUA
[1]
  pull-down binding Z-score: -0.632
[4]
  pull-down binding Z-score: -0.339
TO-N3 (biotin conjugate)
  pull-down binding Z-score: -0.551
[3]
  pull-down binding Z-score: -0.297

## UGGUGUUAGAAGGUCCUUUUAUGUCUAUGCUAAUGGAGGUAAAGGCUUUUGCAAACUA [SHAPE_invitro_SARS-CoV-2_Motif_149]
[1]
  pull-down binding Z-score: -0.562
[4]
  pull-down binding Z-score: -0.276
TO-N3 (biotin conjugate)
  pull-down binding Z-score: -0.58
[3]
  pull-down binding Z-score: -0.638

## UGGUUGGUUGGUUGGUUGGUUGGU [G4_(UGGU)6]
[2]
  pull-down binding Z-score: 1.53

## UGGUUGGUUGGUUGGUUGGUUGGU [G4_r(UGGU)6]
[1]
  pull-down binding Z-score: 4.58
[4]
  pull-down binding Z-score: 7.83
TO-N3 (biotin conjugate)
  pull-down binding Z-score: 6.68
[3]
  pull-down binding Z-score: 7.93

## UGGUUGGUUGGUUGGUUGGUUGGUUGGUUGGU [G4_(UGGU)8]
[2]
  pull-down binding Z-score: 0.443

## UGGUUGGUUGGUUGGUUGGUUGGUUGGUUGGU [G4_r(UGGU)8]
[1]
  pull-down binding Z-score: 5.6
[4]
  pull-down binding Z-score: 9.27
TO-N3 (biotin conjugate)
  pull-down binding Z-score: 7.53
[3]
  pull-down binding Z-score: 8.68

## UGGUUUCCAACCCACUAAUGGUGUUGGUUACCA
[1]
  pull-down binding Z-score: -1.18
[4]
  pull-down binding Z-score: -0.442
TO-N3 (biotin conjugate)
  pull-down binding Z-score: -1.05
[3]
  pull-down binding Z-score: -0.662

## UGGUUUGUAACACAAAGGAAUUUUUAUGAACCA [SHAPE_invivo_SARS-CoV-2_Motif_466]
[1]
  pull-down binding Z-score: -0.605
[4]
  pull-down binding Z-score: 0.046
TO-N3 (biotin conjugate)
  pull-down binding Z-score: -0.0419
[3]
  pull-down binding Z-score: 0.139

## UGGUUUUGCUAAAUUCCUAAAAACUA [DMSMaPseq_invitro_SARS-CoV-2_Motif_244]
[1]
  pull-down binding Z-score: -0.866
[4]
  pull-down binding Z-score: -0.0765
TO-N3 (biotin conjugate)
  pull-down binding Z-score: -0.632
[3]
  pull-down binding Z-score: -0.45

## UGUAAAUCACAUAAACCACCCAUUAGUUUUCCAUUGUGUGCUAAUGGACAAGUUUUUGGUUUAUA
[1]
  pull-down binding Z-score: -0.995
[4]
  pull-down binding Z-score: 0.371
TO-N3 (biotin conjugate)
  pull-down binding Z-score: -0.491
[3]
  pull-down binding Z-score: -0.529

## UGUAAGCACAAGCUGAUGAGUACGAACUUAUGUACUCAUUCGUUUCGGAAGAGACAGGUACGUUAAUAGUUAAUAGCGUACUUCUUUUUCUUGCUUUCG [DMSMaPseq_invitro_SARS-CoV-2_Multi_80_ComplexLevel_1]
[1]
  pull-down binding Z-score: -0.373
[4]
  pull-down binding Z-score: -0.529
TO-N3 (biotin conjugate)
  pull-down binding Z-score: -0.883
[3]
  pull-down binding Z-score: -1.03

## UGUACAUACAGCUAAUAAAUGGGAUCUCAUUAUUAGUGAUAUGUACG [DMSMaPseq_invitro_SARS-CoV-2_Motif_370]
[1]
  pull-down binding Z-score: -0.223
[4]
  pull-down binding Z-score: -0.188
TO-N3 (biotin conjugate)
  pull-down binding Z-score: -0.461
[3]
  pull-down binding Z-score: -0.362

## UGUACAUCUUCUUUGCAUCAUUUUAUUAUGUAUGGAAAAGUUAUGUGCA [SHAPE_invitro_SARS-CoV-2_Motif_147]
[1]
  pull-down binding Z-score: -0.553
[4]
  pull-down binding Z-score: -0.347
TO-N3 (biotin conjugate)
  pull-down binding Z-score: -0.813
[3]
  pull-down binding Z-score: -0.791

## UGUACUUGGAUUGGCUGCAAUCAUGCAAUUGUUUUUCAGCUAUUUUGCAGUACA [SHAPE_invivo_SARS-CoV-2_Motif_149]
[1]
  pull-down binding Z-score: -0.907
[4]
  pull-down binding Z-score: -0.559
TO-N3 (biotin conjugate)
  pull-down binding Z-score: -0.78
[3]
  pull-down binding Z-score: -0.482

## UGUAUGAAAAUGCCUUUUUACCUUUUGCUAUGGGUAUUAUUGCUAUGUCUGCUUUUGCAAUGAUGUUUGUCAAACAUAAGCAUGCA
[1]
  pull-down binding Z-score: -0.447
[4]
  pull-down binding Z-score: 0.0997
TO-N3 (biotin conjugate)
  pull-down binding Z-score: -0.547
[3]
  pull-down binding Z-score: -0.713

## UGUCACAUCAAUCUGACA
[1]
  pull-down binding Z-score: -0.472
[4]
  pull-down binding Z-score: -0.268
TO-N3 (biotin conjugate)
  pull-down binding Z-score: -0.416
[3]
  pull-down binding Z-score: -0.221
